Measurements: US20070099837A1

Molecular target: human zFGF5 (human) (UniProt O76093)
Test: cell-based or functional assay

Sequence of human zFGF5 (human) (O76093 28-207): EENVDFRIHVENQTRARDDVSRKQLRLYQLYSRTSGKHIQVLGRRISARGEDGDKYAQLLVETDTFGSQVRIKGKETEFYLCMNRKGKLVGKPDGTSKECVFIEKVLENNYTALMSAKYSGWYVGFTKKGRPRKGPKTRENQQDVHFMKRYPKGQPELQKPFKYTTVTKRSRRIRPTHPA

Row | Substance | Cell Proliferation (percent of control), BAF3 cells expressing FGFR3α-IIIc with zFGF5, soluble receptor at 0 fold-excess (percent of control) | Cell Proliferation (percent of control), BAF3 cells expressing FGFR3α-IIIc with zFGF5, soluble receptor at 62.5 fold-excess (percent of control) | Cell Proliferation (percent of control), BAF3 cells expressing FGFR3α-IIIc with zFGF5, soluble receptor at 125 fold-excess (percent of control) | Cell Proliferation (percent of control), BAF3 cells expressing FGFR3α-IIIc with zFGF5, soluble receptor at 250 fold-excess (percent of control) | Cell Proliferation (percent of control), BAF3 cells expressing FGFR3α-IIIc with zFGF5, soluble receptor at 500 fold-excess (percent of control) | Cell Proliferation (percent of control), BAF3 cells expressing FGFR3α-IIIc with zFGF5, soluble receptor at 1000 fold-excess (percent of control) | Cell Proliferation (percent of control), BAF3 cells expressing FGFR3α-IIIc with zFGF5, soluble receptor at 0.8 fold-excess (percent of control) | Cell Proliferation (percent of control), BAF3 cells expressing FGFR3α-IIIc with zFGF5, soluble receptor at 1.6 fold-excess (percent of control) | Cell Proliferation (percent of control), BAF3 cells expressing FGFR3α-IIIc with zFGF5, soluble receptor at 3.2 fold-excess (percent of control) | Cell Proliferation (percent of control), BAF3 cells expressing FGFR3α-IIIc with zFGF5, soluble receptor at 6.3 (printed 6..3) fold-excess (percent of control) | Cell Proliferation (percent of control), BAF3 cells expressing FGFR3α-IIIc with zFGF5, soluble receptor at 12.5 fold-excess (percent of control) | Cell Proliferation (percent of control), BAF3 cells expressing FGFR3α-IIIc with zFGF5, soluble receptor at 25 fold-excess (percent of control) | Cell Proliferation (percent of control), BAF3 cells expressing FGFR3α-IIIc with zFGF5, soluble receptor at 50 fold-excess (percent of control) | Cell Proliferation (percent of control), BAF3 cells expressing FGFR3α-IIIc with zFGF5, soluble receptor at 100 fold-excess (percent of control)
1 | FGFR2α-IIIb/Fc soluble receptor (from UniProt P21802 22-378) (Fc fusion) | 100 | 101 | 90 | 91 | 101 | 99 |  |  |  |  |  |  |  | 
2 | FGFR3α-IIIc/Fc soluble receptor (Fc fusion) | 100 |  |  |  |  |  | 85 | 66 | 37 | 5 | 1 | 0.2 | 0 | 0
